Experiment [1] has as its target VE-cadherin (VEC) of VEC-positive cells (VEC-null line reconstituted with VEC wild type cDNA) (UniProt P33151). Put plainly: co-IP.
The target in experiment [2] is β-catenin (endogenous) (mouse (endogenous in mouse ECs)) (UniProt Q02248). In words: co-IP.
Chain of UniProt Q02248 (Q02248 whole entry): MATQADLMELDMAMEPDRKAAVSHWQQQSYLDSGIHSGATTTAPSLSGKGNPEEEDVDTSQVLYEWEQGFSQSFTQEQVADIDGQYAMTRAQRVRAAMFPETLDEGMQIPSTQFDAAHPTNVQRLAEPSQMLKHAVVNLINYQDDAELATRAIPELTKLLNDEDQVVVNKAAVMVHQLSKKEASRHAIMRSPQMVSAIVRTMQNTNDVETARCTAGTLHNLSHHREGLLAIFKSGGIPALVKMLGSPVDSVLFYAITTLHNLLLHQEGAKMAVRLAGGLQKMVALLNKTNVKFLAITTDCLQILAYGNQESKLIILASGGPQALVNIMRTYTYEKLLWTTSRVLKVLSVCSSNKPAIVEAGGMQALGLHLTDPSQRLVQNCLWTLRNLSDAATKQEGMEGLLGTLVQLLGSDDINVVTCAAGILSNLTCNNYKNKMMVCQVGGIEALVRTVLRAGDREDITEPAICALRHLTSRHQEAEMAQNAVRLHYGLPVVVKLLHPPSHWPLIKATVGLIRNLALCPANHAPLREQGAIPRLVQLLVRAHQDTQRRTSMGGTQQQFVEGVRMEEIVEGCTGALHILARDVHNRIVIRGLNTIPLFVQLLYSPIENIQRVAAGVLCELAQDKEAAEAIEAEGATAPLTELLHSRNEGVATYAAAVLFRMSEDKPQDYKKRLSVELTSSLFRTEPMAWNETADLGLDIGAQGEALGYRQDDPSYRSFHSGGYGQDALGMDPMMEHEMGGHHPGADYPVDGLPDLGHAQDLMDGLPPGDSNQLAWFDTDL

Chain of UniProt P33151 (P33151 48-784): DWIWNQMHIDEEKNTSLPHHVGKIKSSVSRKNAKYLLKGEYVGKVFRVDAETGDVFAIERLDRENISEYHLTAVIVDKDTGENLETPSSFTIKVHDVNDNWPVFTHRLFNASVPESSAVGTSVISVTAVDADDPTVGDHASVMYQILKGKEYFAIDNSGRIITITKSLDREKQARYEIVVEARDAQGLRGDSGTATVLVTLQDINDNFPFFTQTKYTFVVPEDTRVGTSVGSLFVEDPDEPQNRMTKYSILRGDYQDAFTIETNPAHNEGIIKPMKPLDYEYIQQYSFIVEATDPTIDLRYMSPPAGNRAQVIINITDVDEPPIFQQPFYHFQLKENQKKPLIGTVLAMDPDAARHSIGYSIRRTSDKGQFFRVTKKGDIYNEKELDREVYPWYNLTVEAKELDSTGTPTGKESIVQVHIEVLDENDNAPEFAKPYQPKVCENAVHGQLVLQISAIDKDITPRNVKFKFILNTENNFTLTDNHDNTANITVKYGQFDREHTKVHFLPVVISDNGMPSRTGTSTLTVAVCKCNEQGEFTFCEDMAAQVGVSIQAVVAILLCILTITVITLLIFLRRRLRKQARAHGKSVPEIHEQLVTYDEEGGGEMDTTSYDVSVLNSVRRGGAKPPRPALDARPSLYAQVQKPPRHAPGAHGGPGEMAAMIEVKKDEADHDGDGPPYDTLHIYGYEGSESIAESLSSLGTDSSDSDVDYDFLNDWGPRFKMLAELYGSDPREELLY

Substance “TAT-M10 (Ezh2 peptide M10 synthesized in tandem with TAT of human immunodeficiency virus) (from UniProt Q61188 454-473)” displayed a percent reduction of VEC/Ezh2 association in experiment [1] of 45.3%.

“TAT-P30 (Ezh2 peptide P30 synthesized in tandem with TAT of human immunodeficiency virus) (from UniProt Q61188 585-604)” gave a percent reduction of VEC/Ezh2 association in experiment [2] of 28%.

These data come from article PMC5771688.
